# B1: Arabidopsis thaliana β-amylase2 (AtBAM2), wild type (enzyme, UniProt O65258 56-542, looked up)
# chain: AESTEEDRVPIDDDDDSTDQLVDEEIVHFEERDFAGTACVPVYVMLPLGVIDMNSEVVEPEELLDQLRTLKSVNVDGVMVDCWWGIVESHTPQVYNWSGYKKLFQMIRELGLKIQVVMSFHECGGNVGDDVHIQIPEWVREIGQSNPDIYFTDSAGRRNTECLTWGIDKQRVLRGRTALEVYFDYMRSFRVEFDEFFEEKIIPEIEVGLGPCGELRYPSYPAQFGWKYPGIGEFQCYDKYLMNSLKEAAEVRGHSFWGRGPDNTETYNSTPHGTGFFRDGGDYDSYYGRFFLNWYSRVLIDHGDRVLAMANLAFEGTCIAAKLSGIHWWYKTASHAAELTAGFYNSSNRDGYGPIAAMFKKHDAALNFTCVELRTLDQHEDFPEALADPEGLVWQVLNAAWDASIPVASENALPCYDREGYNKILENAKPLTDPDGRHLSCFTYLRLNPTLMESQNFKEFERFLKRMHGEAVPDLGLAPGTQETNPE
# Legend:
# [1] = biological target: AtBAM2 with the Ndel1 truncation (Arabidopsis thaliana) (UniProt O65258); experiment: small-angle X-ray scattering
# [2] = biological target: the molecule itself; experiment: small-angle X-ray scattering
Molecule,stoichiometry N [1],stoichiometry N [2]
AtBAM2 with the Ndel1 truncation (from UniProt O65258 86-542) (domain or fragment),4,
B1,,4

# Reference: publication doi:10.1101/751602 (bioRxiv, 2019)
